Assay [1] concerns the target T1, claudin-18.2 antigen (manufacturer: GenScript, batch number: R50092011) (UniProt P56856-2 1-261, limits assumed).
T1 construct: Bought antigen
T1 sequence (looked up): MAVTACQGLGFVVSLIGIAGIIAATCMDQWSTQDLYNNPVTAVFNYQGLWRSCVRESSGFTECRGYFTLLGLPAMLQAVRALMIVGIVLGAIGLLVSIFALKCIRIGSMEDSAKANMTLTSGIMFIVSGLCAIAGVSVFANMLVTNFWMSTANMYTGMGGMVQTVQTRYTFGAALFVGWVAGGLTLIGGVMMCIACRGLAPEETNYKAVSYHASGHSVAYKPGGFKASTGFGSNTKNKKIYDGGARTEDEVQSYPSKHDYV
Briefly: ELISA, plate coated with claudin-18.2 antigen. Here is the method: The ELISA plates were washed three times with PBST and blocked with 5% PBS-milk for 2 h at room temperature. The ELISA plate was washed three times with PBST, and the diluted antibodies were added to the ELISA plate, 30 μL per well, and incubated at room temperature for 60 min. The plates were washed three times with PBST and incubated with anti-human IgG-Fc-HRP (abcam, ab97225) for 50 min at room temperature. The plate was washed 12 times with PBST, and TMB was added, 30 μL per well. The reaction was terminated with stop solution and OD450 was read. The ELISA affinity EC50 was calculated.
(In general: An ELISA detects its analyte on a solid surface through an enzyme-linked reagent.)

Assay [2] concerns the target T1, claudin-18.2 antigen (manufacturer: …). Briefly: Gator label-free kinetics, antibody loaded, antigen 2000-500 nM. Here is the method: The GATOR instrument and associated software were opened and the Kinetics experimental mode was selected. After data collection, Kinetics fitting was performed to calculate the affinity kinetic parameters. The correlation coefficient R² of all antibodies in the Global fitting mode was greater than 0.95, which met the system suitability requirements and the results were reliable.

A word on the EC50: it is the concentration that produces a half-maximal response. For orientation: Kd means the concentration at which binding is half-saturated. Low readings indicate tighter binding, high ones weaker binding. In general, koff refers to the first-order rate constant of dissociation. Lower therefore signals a long-lived complex. What is called kon is the rate constant with which the complex forms. A higher kon goes with fast association.

B1: 1E7-huVH1huVL2 (antibody, human IgG4 S228P, kappa)
heavy: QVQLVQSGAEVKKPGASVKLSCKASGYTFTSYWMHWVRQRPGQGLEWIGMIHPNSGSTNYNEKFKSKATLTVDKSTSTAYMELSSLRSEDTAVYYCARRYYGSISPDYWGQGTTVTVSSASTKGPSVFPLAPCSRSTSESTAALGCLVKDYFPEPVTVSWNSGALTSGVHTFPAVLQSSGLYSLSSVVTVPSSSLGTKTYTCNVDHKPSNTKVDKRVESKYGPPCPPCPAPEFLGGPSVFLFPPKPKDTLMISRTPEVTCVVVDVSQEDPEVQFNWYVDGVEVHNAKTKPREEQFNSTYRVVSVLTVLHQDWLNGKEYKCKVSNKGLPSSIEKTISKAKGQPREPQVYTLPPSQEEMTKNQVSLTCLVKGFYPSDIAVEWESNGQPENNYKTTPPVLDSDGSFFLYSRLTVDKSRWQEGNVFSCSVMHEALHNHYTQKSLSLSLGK
light: DIQMTQSPSSLSASVGDRVTMTCKSSQSLLNSGNQKNYLTWYQQKPGKAPKLLIYWASTRESGVPSRFSGSGSGTDFTLTISSLQPEDFATYYCQNDYSYPFTFGGGTKLEIKRTVAAPSVFIFPPSDEQLKSGTASVVCLLNNFYPREAKVQWKVDNALQSGNSQESVTEQDSKDSTYSLSSTLTLSKADYEKHKVYACEVTHQGLSSPVTKSFNRGEC
notes: humanized 1E7, human IgG4, kappa
Regarding B1, a half-maximal response in assay [1] (EC50) required 0.156 µg/mL. In assay [2], this molecule yielded a dissociation constant (Kd) of 5.08 nM, an off-rate (koff) of 5.56e-05 s⁻¹ and an association rate constant (kon) of 10900 M⁻¹ s⁻¹.

B2: 1B6-huVH3-HC (IgG1) huVL2 (antibody)
heavy: not shown
light: DIQMTQSPSSLSASVGDRVTMTCKSSQSLFNSGNQKNYLTWYQQKPGKAPKLLIYWASTRESGVPSRFSGSGSGTDFTLTISSLQPEDFATYYCQNDYSYPLTFGGGTKLEIKRTVAAPSVFIFPPSDEQLKSGTASVVCLLNNFYPREAKVQWKVDNALQSGNSQESVTEQDSKDSTYSLSSTLTLSKADYEKHKVYACEVTHQGLSSPVTKSFNRGEC
notes: humanized 1B6, human IgG1, kappa
For B2, a half-maximal response in assay [1] (EC50) required 0.0614 µg/mL. In assay [2], this molecule came in with a Kd of 10.9 nM, a koff of 0.00012 s⁻¹ and an on-rate constant (kon) of 11100 M⁻¹ s⁻¹.

B3: 1B6-huVH1-HC (IgG1) huVL1 (antibody)
heavy: not shown
light: DIVMTQSPSSLSVSVGDRVTMTCKSSQSLFNSGNQKNYLTWYQQKPGKAPKLLIYWASTRESGVPDRFSGSGSGTDFTLTISSVQPEDFATYFCQNDYSYPLTFGGGTKLEIKRTVAAPSVFIFPPSDEQLKSGTASVVCLLNNFYPREAKVQWKVDNALQSGNSQESVTEQDSKDSTYSLSSTLTLSKADYEKHKVYACEVTHQGLSSPVTKSFNRGEC
notes: as for B2
B3: it took 0.0248 µg/mL to reach a half-maximal effect in assay [1] (EC50). Also, in assay [2], the Kd turned out to be 63.3 nM, the off-rate constant (koff) stood at 0.00123 s⁻¹ and the kon was 19400 M⁻¹ s⁻¹.

B4: 1B6-huVH2-HC (IgG1) huVL1 (antibody)
heavy: not shown
light: DIVMTQSPSSLSVSVGDRVTMTCKSSQSLFNSGNQKNYLTWYQQKPGKAPKLLIYWASTRESGVPDRFSGSGSGTDFTLTISSVQPEDFATYFCQNDYSYPLTFGGGTKLEIKRTVAAPSVFIFPPSDEQLKSGTASVVCLLNNFYPREAKVQWKVDNALQSGNSQESVTEQDSKDSTYSLSSTLTLSKADYEKHKVYACEVTHQGLSSPVTKSFNRGEC
notes: as for B2
The molecule B4 showed an EC50 in assay [1] of 0.0403 µg/mL. In assay [2], this molecule yielded a dissociation constant (Kd) of 9.84 nM, an off-rate constant (koff) of 0.000101 s⁻¹ and a kon of 10300 M⁻¹ s⁻¹.

B5: 1B6-huVH1-HC (IgG1) huVL2 (antibody)
heavy: not shown
light: DIQMTQSPSSLSASVGDRVTMTCKSSQSLFNSGNQKNYLTWYQQKPGKAPKLLIYWASTRESGVPSRFSGSGSGTDFTLTISSLQPEDFATYYCQNDYSYPLTFGGGTKLEIKRTVAAPSVFIFPPSDEQLKSGTASVVCLLNNFYPREAKVQWKVDNALQSGNSQESVTEQDSKDSTYSLSSTLTLSKADYEKHKVYACEVTHQGLSSPVTKSFNRGEC
notes: as for B2
In the case of B5, a half-maximal response in assay [1] (EC50) required 0.0162 µg/mL. In assay [2], the dissociation constant Kd was found to be 86.7 nM, the koff amounted to 0.00171 s⁻¹ and the on-rate constant (kon) is 19700 M⁻¹ s⁻¹.

B6: 1E7-huVH4huVL3 (antibody, human IgG4 S228P, kappa)
heavy: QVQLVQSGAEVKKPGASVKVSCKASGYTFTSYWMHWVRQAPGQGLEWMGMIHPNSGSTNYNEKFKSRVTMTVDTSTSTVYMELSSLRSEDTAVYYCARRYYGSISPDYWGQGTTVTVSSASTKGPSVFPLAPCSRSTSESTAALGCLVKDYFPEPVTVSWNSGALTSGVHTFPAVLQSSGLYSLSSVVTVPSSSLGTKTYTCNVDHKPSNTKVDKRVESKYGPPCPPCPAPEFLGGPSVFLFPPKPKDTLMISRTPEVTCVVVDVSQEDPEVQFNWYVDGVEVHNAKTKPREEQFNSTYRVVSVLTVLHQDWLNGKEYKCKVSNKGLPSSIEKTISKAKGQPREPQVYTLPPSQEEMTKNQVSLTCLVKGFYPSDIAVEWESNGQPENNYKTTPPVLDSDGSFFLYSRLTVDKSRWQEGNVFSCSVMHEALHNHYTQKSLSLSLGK
light: DIQMTQSPSSLSASVGDRVTITCRSSQSLLNSGNQKNYLTWYQQKPGKAPKLLIYWASTRESGVPSRFSGSGSGTDFTLTISSLQPEDFATYYCQNDYSYPFTFGGGTKLEIKRTVAAPSVFIFPPSDEQLKSGTASVVCLLNNFYPREAKVQWKVDNALQSGNSQESVTEQDSKDSTYSLSSTLTLSKADYEKHKVYACEVTHQGLSSPVTKSFNRGEC
notes: as for B1
In turn, B6 gave a 50% effective concentration (EC50) in assay [1] of 0.441 µg/mL. In assay [2], this molecule displayed a dissociation constant (Kd) of 6.19 nM, a koff of 6.27e-05 s⁻¹ and a kon of 10100 M⁻¹ s⁻¹.

B7: 1E7-huVH5huVL2 (antibody, human IgG4 S228P, kappa)
heavy: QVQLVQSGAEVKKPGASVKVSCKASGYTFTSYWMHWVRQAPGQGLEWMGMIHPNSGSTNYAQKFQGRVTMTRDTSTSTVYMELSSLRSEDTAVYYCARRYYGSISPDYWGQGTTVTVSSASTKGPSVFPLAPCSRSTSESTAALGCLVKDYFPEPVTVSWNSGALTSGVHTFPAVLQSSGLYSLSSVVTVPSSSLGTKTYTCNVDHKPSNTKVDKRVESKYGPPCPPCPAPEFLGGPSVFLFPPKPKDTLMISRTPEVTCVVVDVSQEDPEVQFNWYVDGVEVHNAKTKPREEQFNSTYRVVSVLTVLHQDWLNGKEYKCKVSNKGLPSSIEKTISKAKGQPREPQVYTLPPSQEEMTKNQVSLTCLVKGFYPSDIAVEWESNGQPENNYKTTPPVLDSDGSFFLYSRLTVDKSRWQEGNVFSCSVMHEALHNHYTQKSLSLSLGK
light: DIQMTQSPSSLSASVGDRVTMTCKSSQSLLNSGNQKNYLTWYQQKPGKAPKLLIYWASTRESGVPSRFSGSGSGTDFTLTISSLQPEDFATYYCQNDYSYPFTFGGGTKLEIKRTVAAPSVFIFPPSDEQLKSGTASVVCLLNNFYPREAKVQWKVDNALQSGNSQESVTEQDSKDSTYSLSSTLTLSKADYEKHKVYACEVTHQGLSSPVTKSFNRGEC
notes: as for B1
B7 gave a concentration giving a half-maximal response (EC50) in assay [1] of 0.496 µg/mL. In assay [2], the Kd amounted to 5.24 nM, the koff amounted to 5.29e-05 s⁻¹ and the kon came to 10100 M⁻¹ s⁻¹.

B8: 1E7-huVH2huVL2 (antibody, human IgG4 S228P, kappa)
heavy: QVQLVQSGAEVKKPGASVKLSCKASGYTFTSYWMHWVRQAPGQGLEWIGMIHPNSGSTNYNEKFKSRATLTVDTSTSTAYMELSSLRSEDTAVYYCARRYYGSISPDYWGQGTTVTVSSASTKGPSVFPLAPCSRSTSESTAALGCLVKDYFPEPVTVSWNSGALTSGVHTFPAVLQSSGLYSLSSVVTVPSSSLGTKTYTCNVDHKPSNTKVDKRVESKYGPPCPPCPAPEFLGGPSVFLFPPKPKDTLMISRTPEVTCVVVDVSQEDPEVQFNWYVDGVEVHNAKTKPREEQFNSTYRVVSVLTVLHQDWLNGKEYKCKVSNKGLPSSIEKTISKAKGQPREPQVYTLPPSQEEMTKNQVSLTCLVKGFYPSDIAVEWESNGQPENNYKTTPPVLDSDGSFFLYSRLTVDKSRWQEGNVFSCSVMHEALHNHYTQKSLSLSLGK
light: DIQMTQSPSSLSASVGDRVTMTCKSSQSLLNSGNQKNYLTWYQQKPGKAPKLLIYWASTRESGVPSRFSGSGSGTDFTLTISSLQPEDFATYYCQNDYSYPFTFGGGTKLEIKRTVAAPSVFIFPPSDEQLKSGTASVVCLLNNFYPREAKVQWKVDNALQSGNSQESVTEQDSKDSTYSLSSTLTLSKADYEKHKVYACEVTHQGLSSPVTKSFNRGEC
notes: humanized 1E7, human IgG4, kappa; also called P04898
Take B8: in assay [1], it took 0.262 µg/mL to reach a half-maximal effect (EC50). For the same molecule, in assay [2], the dissociation constant (Kd) is 21.6 nM, the dissociation rate constant (koff) came to 0.000269 s⁻¹ and the kon came to 12400 M⁻¹ s⁻¹.

B9: 1E7-huVH4huVL2 (antibody, human IgG4 S228P, kappa)
heavy: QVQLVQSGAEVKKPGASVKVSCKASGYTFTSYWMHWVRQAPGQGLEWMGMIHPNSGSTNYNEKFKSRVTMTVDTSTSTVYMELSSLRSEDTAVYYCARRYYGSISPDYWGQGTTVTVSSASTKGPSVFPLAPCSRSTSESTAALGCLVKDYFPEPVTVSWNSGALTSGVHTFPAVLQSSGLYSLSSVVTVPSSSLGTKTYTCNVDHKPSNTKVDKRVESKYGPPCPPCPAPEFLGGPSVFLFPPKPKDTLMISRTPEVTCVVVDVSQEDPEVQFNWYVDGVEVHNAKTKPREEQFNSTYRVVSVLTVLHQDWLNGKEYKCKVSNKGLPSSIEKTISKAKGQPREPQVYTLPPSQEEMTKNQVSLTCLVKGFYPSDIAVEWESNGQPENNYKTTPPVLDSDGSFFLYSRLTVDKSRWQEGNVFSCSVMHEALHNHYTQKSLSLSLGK
light: DIQMTQSPSSLSASVGDRVTMTCKSSQSLLNSGNQKNYLTWYQQKPGKAPKLLIYWASTRESGVPSRFSGSGSGTDFTLTISSLQPEDFATYYCQNDYSYPFTFGGGTKLEIKRTVAAPSVFIFPPSDEQLKSGTASVVCLLNNFYPREAKVQWKVDNALQSGNSQESVTEQDSKDSTYSLSSTLTLSKADYEKHKVYACEVTHQGLSSPVTKSFNRGEC
notes: humanized 1E7, human IgG4, kappa; also called P04902
As to B9, the midpoint of the response in assay [1], the EC50, lay at 0.309 µg/mL. In assay [2], this molecule registered a dissociation constant Kd of 4.6 nM, a koff of 4.86e-05 s⁻¹ and an on-rate constant (kon) of 10600 M⁻¹ s⁻¹.

B10: 1E7-huVH2huVL1 (antibody, human IgG4 S228P, kappa)
heavy: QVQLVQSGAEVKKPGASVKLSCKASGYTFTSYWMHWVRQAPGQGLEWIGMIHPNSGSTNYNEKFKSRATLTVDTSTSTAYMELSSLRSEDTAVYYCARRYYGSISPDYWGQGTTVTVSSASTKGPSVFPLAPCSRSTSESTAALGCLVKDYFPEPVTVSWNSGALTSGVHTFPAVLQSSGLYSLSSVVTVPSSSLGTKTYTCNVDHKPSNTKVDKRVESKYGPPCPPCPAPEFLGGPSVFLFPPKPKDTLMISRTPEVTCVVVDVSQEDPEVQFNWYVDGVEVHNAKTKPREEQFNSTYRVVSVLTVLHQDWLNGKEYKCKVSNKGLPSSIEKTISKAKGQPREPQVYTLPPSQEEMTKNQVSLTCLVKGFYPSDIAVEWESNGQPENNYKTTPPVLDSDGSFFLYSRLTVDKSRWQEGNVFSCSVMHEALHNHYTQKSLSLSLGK
light: DIVMTQSPSSLSVSVGDRVTMTCKSSQSLLNSGNQKNYLTWYQQKPGQPPKLLIYWASTRESGVPDRFSGSGSGTDFTLTISSVQPEDFATYYCQNDYSYPFTFGGGTKLEIKRTVAAPSVFIFPPSDEQLKSGTASVVCLLNNFYPREAKVQWKVDNALQSGNSQESVTEQDSKDSTYSLSSTLTLSKADYEKHKVYACEVTHQGLSSPVTKSFNRGEC
notes: as for B1
As to B10, in assay [1], the response was half-maximal at 0.436 µg/mL (EC50). Also, in assay [2], the Kd turned out to be 0.277 nM, the off-rate constant (koff) amounted to 2.65e-06 s⁻¹ and the on-rate (kon) was 9550 M⁻¹ s⁻¹.

B11: 1E7-huVH3huVL3 (antibody, human IgG4 S228P, kappa)
heavy: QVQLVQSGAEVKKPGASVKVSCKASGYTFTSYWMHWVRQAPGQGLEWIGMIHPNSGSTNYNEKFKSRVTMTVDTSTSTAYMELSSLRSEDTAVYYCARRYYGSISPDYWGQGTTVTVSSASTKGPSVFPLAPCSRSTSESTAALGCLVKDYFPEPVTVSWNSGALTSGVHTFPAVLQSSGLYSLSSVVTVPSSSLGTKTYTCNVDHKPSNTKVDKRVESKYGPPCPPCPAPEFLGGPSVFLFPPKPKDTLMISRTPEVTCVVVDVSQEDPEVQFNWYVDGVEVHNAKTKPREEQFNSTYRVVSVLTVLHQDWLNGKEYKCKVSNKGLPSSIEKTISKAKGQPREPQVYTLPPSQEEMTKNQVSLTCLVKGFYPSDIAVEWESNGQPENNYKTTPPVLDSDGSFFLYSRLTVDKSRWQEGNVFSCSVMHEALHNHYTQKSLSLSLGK
light: DIQMTQSPSSLSASVGDRVTITCRSSQSLLNSGNQKNYLTWYQQKPGKAPKLLIYWASTRESGVPSRFSGSGSGTDFTLTISSLQPEDFATYYCQNDYSYPFTFGGGTKLEIKRTVAAPSVFIFPPSDEQLKSGTASVVCLLNNFYPREAKVQWKVDNALQSGNSQESVTEQDSKDSTYSLSSTLTLSKADYEKHKVYACEVTHQGLSSPVTKSFNRGEC
notes: as for B1
In assay [1], B11 had an EC50 of 0.509 µg/mL. In assay [2], this molecule had a Kd of 13.5 nM, a koff of 0.000149 s⁻¹ and a kon of 11000 M⁻¹ s⁻¹.

B12: 1E7-huVH5huVL3 (antibody, human IgG4 S228P, kappa)
heavy: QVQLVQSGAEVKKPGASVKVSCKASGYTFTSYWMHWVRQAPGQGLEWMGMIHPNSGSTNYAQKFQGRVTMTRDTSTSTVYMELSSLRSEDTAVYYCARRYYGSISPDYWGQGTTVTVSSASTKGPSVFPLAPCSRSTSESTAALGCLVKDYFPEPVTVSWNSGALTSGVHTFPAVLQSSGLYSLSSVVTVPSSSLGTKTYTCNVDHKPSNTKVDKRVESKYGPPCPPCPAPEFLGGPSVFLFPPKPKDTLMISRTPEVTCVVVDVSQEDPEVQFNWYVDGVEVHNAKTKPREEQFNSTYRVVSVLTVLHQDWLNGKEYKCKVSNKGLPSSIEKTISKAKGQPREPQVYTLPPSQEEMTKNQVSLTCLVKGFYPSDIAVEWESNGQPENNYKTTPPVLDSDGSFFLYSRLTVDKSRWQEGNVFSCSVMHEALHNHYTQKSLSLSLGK
light: DIQMTQSPSSLSASVGDRVTITCRSSQSLLNSGNQKNYLTWYQQKPGKAPKLLIYWASTRESGVPSRFSGSGSGTDFTLTISSLQPEDFATYYCQNDYSYPFTFGGGTKLEIKRTVAAPSVFIFPPSDEQLKSGTASVVCLLNNFYPREAKVQWKVDNALQSGNSQESVTEQDSKDSTYSLSSTLTLSKADYEKHKVYACEVTHQGLSSPVTKSFNRGEC
notes: as for B1
B12 gave a half-maximal effective concentration (EC50) in assay [1] of 0.0931 µg/mL. In assay [2], this molecule yielded an equilibrium dissociation constant (Kd) of 3.21 nM, a koff of 3.09e-05 s⁻¹ and a kon of 9610 M⁻¹ s⁻¹.

B13: 1B6-huVH2-HC (IgG1) huVL2 (antibody)
heavy: not shown
light: DIQMTQSPSSLSASVGDRVTMTCKSSQSLFNSGNQKNYLTWYQQKPGKAPKLLIYWASTRESGVPSRFSGSGSGTDFTLTISSLQPEDFATYYCQNDYSYPLTFGGGTKLEIKRTVAAPSVFIFPPSDEQLKSGTASVVCLLNNFYPREAKVQWKVDNALQSGNSQESVTEQDSKDSTYSLSSTLTLSKADYEKHKVYACEVTHQGLSSPVTKSFNRGEC
notes: as for B2
B13: a half-maximal effect in assay [1] (EC50) was put at 0.0301 µg/mL. In assay [2], this molecule came in with a dissociation constant Kd of 11.8 nM, a koff of 0.00013 s⁻¹ and an association rate constant (kon) of 11000 M⁻¹ s⁻¹.

B14: 1B6-huVH3-HC (IgG1) huVL1 (antibody)
heavy: not shown
light: DIVMTQSPSSLSVSVGDRVTMTCKSSQSLFNSGNQKNYLTWYQQKPGKAPKLLIYWASTRESGVPDRFSGSGSGTDFTLTISSVQPEDFATYFCQNDYSYPLTFGGGTKLEIKRTVAAPSVFIFPPSDEQLKSGTASVVCLLNNFYPREAKVQWKVDNALQSGNSQESVTEQDSKDSTYSLSSTLTLSKADYEKHKVYACEVTHQGLSSPVTKSFNRGEC
notes: as for B2
Molecule B14 displayed an EC50 in assay [1] of 0.0592 µg/mL. In assay [2], this molecule yielded a Kd of 7.65 nM, a koff of 7.83e-05 s⁻¹ and an on-rate constant (kon) of 10200 M⁻¹ s⁻¹.

B15: 1E7-huVH3huVL1 (antibody, human IgG4 S228P, kappa)
heavy: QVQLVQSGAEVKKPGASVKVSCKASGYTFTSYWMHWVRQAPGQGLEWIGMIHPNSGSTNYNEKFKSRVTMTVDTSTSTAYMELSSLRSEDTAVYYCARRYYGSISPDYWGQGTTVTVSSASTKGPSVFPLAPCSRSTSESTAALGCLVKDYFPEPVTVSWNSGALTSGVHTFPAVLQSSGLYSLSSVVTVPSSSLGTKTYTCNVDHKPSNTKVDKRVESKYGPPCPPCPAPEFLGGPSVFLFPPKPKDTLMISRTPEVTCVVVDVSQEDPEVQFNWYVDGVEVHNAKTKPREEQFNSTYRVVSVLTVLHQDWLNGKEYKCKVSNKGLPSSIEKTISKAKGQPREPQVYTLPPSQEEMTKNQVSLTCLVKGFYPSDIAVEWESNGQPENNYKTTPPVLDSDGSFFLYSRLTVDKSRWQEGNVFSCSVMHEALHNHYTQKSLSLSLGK
light: DIVMTQSPSSLSVSVGDRVTMTCKSSQSLLNSGNQKNYLTWYQQKPGQPPKLLIYWASTRESGVPDRFSGSGSGTDFTLTISSVQPEDFATYYCQNDYSYPFTFGGGTKLEIKRTVAAPSVFIFPPSDEQLKSGTASVVCLLNNFYPREAKVQWKVDNALQSGNSQESVTEQDSKDSTYSLSSTLTLSKADYEKHKVYACEVTHQGLSSPVTKSFNRGEC
notes: as for B1
In assay [1], B15 yielded a 50% effective concentration (EC50) of 0.606 µg/mL. In assay [2], this molecule displayed a Kd of 12 nM, an off-rate (koff) of 0.000132 s⁻¹ and a kon of 11000 M⁻¹ s⁻¹.

The values are drawn from patent US20250332197A1 (SUNSHINE LAKE PHARMA, published 2025).
